Reference: US20160311881A1 (Eli Lilly, published 2016)
Non-standard residues stand in square brackets, D forms with d. No end group written: not given here. Aib = CC(C)(N)C(=O)O

Legend:
[1] = molecular target: T1, human glucagon receptor (hGR) (human, UniProt P47871 26-477); assay: cell-based or functional assay
[2] = molecular target: T1, human glucagon receptor (hGR); assay: SPA competition against 125I-labelled glucagon on hGR membranes; Cheng-Prusoff
Description: Plates are sealed, mixed end over end, and read with a MicroBeta® scintillation counter after 12 hours of settling time at room temperature.

[3] = molecular target: T2, mouse glucagon receptor (mGR) (mouse, UniProt Q61606 27-485); assay: SPA competition against 125I-labelled glucagon on mGR membranes; Cheng-Prusoff
T2 construct: whole, on cells; The assay used crude plasma membranes of the expressing 293HEK cells

[4] = molecular target: T3, human glucose-dependent insulinotropic peptide receptor (GIP-R) (human, UniProt P48546 22-466); assay: SPA competition against 125I-labelled GIP on human GIP-R membranes; Cheng-Prusoff
T3 construct: whole, on cells; The assay used crude plasma membranes of the expressing CHO-S cells; also called human GIP-R; hGIP-R
T3 sequence (looked up): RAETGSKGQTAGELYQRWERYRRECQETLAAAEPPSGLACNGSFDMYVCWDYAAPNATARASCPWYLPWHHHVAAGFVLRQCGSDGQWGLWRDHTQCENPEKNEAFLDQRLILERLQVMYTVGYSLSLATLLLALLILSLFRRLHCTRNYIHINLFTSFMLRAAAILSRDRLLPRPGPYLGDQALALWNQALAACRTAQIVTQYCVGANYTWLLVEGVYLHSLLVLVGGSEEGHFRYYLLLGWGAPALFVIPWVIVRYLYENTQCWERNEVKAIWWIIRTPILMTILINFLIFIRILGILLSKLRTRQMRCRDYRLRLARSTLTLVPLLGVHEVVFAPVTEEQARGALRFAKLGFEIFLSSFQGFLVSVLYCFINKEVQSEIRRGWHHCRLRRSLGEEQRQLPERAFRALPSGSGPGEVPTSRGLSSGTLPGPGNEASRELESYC

[5] = molecular target: T4, human glucagon-like peptide 1 receptor (hGLP-1R) (human, UniProt P43220 24-463); assay: SPA competition against 125I-labelled GLP-1 amide on hGLP-1R membranes; Cheng-Prusoff
T4 construct: whole, on cells; The assay used crude plasma membranes of the expressing 293HEK cells

T1 sequence (P47871 26-477): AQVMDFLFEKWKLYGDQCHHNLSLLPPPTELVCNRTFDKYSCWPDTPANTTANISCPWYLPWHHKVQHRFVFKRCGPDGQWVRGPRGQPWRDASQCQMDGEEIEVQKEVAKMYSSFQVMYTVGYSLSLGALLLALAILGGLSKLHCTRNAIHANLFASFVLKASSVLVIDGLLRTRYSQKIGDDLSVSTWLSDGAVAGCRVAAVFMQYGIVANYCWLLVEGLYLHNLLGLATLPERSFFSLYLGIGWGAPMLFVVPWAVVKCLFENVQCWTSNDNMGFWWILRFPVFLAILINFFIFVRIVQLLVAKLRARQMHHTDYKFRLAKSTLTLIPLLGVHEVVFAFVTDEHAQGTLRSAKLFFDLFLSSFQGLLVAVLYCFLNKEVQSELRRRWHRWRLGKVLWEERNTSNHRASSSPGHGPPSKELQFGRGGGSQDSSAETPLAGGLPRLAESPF
T2 sequence (Q61606 27-485): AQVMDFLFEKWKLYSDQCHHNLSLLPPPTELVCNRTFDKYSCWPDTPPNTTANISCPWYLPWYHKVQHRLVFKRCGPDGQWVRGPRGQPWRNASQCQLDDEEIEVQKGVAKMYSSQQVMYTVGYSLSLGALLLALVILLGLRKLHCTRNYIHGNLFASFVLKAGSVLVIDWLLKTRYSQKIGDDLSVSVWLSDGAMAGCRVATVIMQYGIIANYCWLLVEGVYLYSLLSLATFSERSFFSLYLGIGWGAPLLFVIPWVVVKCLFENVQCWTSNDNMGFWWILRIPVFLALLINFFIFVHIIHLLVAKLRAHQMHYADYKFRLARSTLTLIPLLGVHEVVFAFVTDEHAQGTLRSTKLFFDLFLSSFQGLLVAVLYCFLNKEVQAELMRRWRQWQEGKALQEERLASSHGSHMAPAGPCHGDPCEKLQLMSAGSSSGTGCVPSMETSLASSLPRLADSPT

- hGR stimulated cAMP functional assay (HTRF), relative EC50 [1]: 0.0356 nM
- Ki [2]: 0.397 nM
- Ki [3]: 0.494 nM
- Ki [4]: 1050 nM
- Ki [5]: 1220 nM
B1: compound of SEQ ID NO: 2 (peptide)
peptide: HAQGTFLSDYSKYLD[Aib]KKAQEFVEWLLKTGPSSGAPPKSK-NH2
modifications: N-terminus assumed
SMILES: CC(C)C[C@H](NC(=O)[C@H](Cc1c[nH]c2ccccc12)NC(=O)[C@H](CCC(=O)O)NC(=O)[C@@H](NC(=O)[C@H](Cc1ccccc1)NC(=O)[C@H](CCC(=O)O)NC(=O)[C@H](CCC(N)=O)NC(=O)[C@H](C)NC(=O)[C@H](CCCCN)NC(=O)[C@H](CCCCN)NC(=O)C(C)(C)NC(=O)[C@H](CC(=O)O)NC(=O)[C@H](CC(C)C)NC(=O)[C@H](Cc1ccc(O)cc1)NC(=O)[C@H](CCCCN)NC(=O)[C@H](CO)NC(=O)[C@H](Cc1ccc(O)cc1)NC(=O)[C@H](CC(=O)O)NC(=O)[C@H](CO)NC(=O)[C@H](CC(C)C)NC(=O)[C@H](Cc1ccccc1)NC(=O)[C@@H](NC(=O)CNC(=O)[C@H](CCC(N)=O)NC(=O)[C@H](C)NC(=O)[C@@H](N)Cc1c[nH]cn1)[C@@H](C)O)C(C)C)C(=O)N[C@@H](CC(C)C)C(=O)N[C@@H](CCCCN)C(=O)N[C@H](C(=O)NCC(=O)N1CCC[C@H]1C(=O)N[C@@H](CO)C(=O)N[C@@H](CO)C(=O)NCC(=O)N[C@@H](C)C(=O)N1CCC[C@H]1C(=O)N1CCC[C@H]1C(=O)N[C@@H](CCCCN)C(=O)N[C@@H](CO)C(=O)N[C@@H](CCCCN)C(N)=O)[C@@H](C)O
notes: Synthetic 40-residue glucagon analog made by solid-phase synthesis on Rink amide resin
